From PMC10570040

T1: EnfR T55I (Thermococcus onnurineus NA1, UniProt B6YTS4 1-146, T55I)
T1 sequence: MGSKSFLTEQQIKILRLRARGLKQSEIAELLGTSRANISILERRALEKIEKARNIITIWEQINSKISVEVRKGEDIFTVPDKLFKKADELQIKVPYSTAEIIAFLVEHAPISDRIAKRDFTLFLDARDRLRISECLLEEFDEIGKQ

T2: EnfR wild-type (TON_1525) (Thermococcus onnurineus NA1, UniProt B6YTS4 1-146)
T2 sequence: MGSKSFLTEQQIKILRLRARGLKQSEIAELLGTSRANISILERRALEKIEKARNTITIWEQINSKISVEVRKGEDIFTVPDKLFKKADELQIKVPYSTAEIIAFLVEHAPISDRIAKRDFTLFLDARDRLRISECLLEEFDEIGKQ

T3: EnfR R44A (Thermococcus onnurineus NA1, UniProt B6YTS4 1-146, R44A)
T3 sequence: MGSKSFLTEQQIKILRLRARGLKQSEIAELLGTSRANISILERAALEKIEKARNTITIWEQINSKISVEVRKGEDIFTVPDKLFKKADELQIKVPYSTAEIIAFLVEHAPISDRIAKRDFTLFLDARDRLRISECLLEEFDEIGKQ


Tests used:
EnfR T55I = target: T1, EnfR T55I; experiment: ITC; 25 C; N = 0.80; EMSA: 10 mM Tris pH 7.4, 200 mM KCl, 2 mM DTT, 0.2 mM EDTA, 37 C 20 min; ITC: 10 mM Tris-HCl pH 7.4, 200 mM KCl, 1 mM TCEP, 0.2 mM EDTA, 25 C; footprint: 20 mM; conditions: protein: recombinant; tags: C-terminal His6, non-cleavable; chain copies: 2; blunt
[1] = target: T2, EnfR wild-type (TON_1525); experiment: ITC; 25 C; N = 0.94; EMSA: 10 mM Tris pH 7.4, 200 mM KCl, 2 mM DTT, 0.2 mM EDTA, 37 C 20 min; ITC: 10 mM Tris-HCl pH 7.4, 200 mM KCl, 1 mM TCEP, 0.2 mM EDTA, 25 C; footprint: 20 mM; conditions: protein: recombinant; tags: C-terminal His6, non-cleavable; chain copies: 2; blunt
EnfR R44A = target: T3, EnfR R44A; experiment: EMSA; seemed to lose binding; EMSA: 10 mM Tris pH 7.4, 200 mM KCl, 2 mM DTT, 0.2 mM EDTA, 37 C 20 min; ITC: 10 mM Tris-HCl pH 7.4, 200 mM KCl, 1 mM TCEP, 0.2 mM EDTA, 25 C; footprint: 20 mM; conditions: protein: recombinant; tags: C-terminal His6, non-cleavable; chain copies: 2; label: 5'-Cy5; blunt

Row | Binder | Kd (EnfR T55I) | Kd [1] | binding result (EnfR R44A)
1 | 36-bp target, unlabelled (ITC) (dsDNA) DNA 1: CCATCTTAAAATCTTTTTGTTTACATTATACGAGGT DNA 2: ACCTCGTATAATGTAAACAAAAAGATTTTAAGATGG | 948 ± 130 nM | 61.8 ± 20.5 nM | 
2 | 36-bp target, Cy5 (dsDNA) DNA 1: CCATCTTAAAATCTTTTTGTTTACATTATACGAGGT DNA 2: ACCTCGTATAATGTAAACAAAAAGATTTTAAGATGG |  |  | no binding
